Article PMC2810336, “Mutational Analysis of Highly Conserved Residues in the Phage PhiC31 Integrase Reveals Key Amino Acids Necessary for the DNA Recombination”
Changes are numbered by the printed parent chain.

Key:
Assay in all cases: EMSA; 400 nM protein; 50 ng/ul Poly (competitor (so in the source)), 0.05% NP-40, 50 mM KCl, 5 mM MgCl2, 10 mM EDTA, 20 ul, 0.4 ng (16 fmol) probe; 30 min at room temperature (Methods) or 30 C; pH not stated; synapsis 2 h at 30 C
Conditions in all cases: protein: recombinant; tags: C-terminal His; chain copies: 2; label: biotin, double-strand end-labeled; blunt
[1] = target: T1, phiC31 integrase G182A/F183A (Streptomyces phage phiC31, UniProt Q38194 1-613, G182A;F183A)
T1 sequence: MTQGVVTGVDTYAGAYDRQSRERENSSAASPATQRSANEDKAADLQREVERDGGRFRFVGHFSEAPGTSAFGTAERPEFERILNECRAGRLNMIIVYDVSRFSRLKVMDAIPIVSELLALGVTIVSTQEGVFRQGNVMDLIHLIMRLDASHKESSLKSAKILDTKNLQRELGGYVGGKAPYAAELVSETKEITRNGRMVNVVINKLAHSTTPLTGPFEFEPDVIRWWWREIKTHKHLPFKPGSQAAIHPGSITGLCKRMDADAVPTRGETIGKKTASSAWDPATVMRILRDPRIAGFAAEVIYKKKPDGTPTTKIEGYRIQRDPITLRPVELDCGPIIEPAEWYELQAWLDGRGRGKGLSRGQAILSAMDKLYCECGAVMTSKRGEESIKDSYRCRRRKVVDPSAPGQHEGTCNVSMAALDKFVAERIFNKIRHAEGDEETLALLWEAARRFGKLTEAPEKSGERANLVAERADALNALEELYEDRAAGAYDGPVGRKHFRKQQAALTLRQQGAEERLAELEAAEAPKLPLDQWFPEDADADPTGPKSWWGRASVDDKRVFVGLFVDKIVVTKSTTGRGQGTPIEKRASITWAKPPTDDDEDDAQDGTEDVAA

[2] = target: T2, phiC31 integrase V571A (Streptomyces phage phiC31, UniProt Q38194 1-613, V571A)
T2 sequence: T1 sequence with A182G, A183F, V571A

[3] = target: T3, phiC31 integrase V566A (Streptomyces phage phiC31, UniProt Q38194 1-613, V566A)
T3 sequence: T1 sequence with A182G, A183F, V566A

B1: attB 41 bp (dsDNA)
DNA 1: CGGGTGCCAGGGCGTGCCCTTGGGCTCCCCGGGCGCGTACT
DNA 2: AGTACGCGCCCGGGGAGCCCAAGGGCACGCCCTGGCACCCG
Q: Which binding signal [1] does the source give for B1 here?
A: The binding signal was 0 % of WT.

Q: And the binding signal [2]?
A: The binding signal was 15.6 ± 1.7 % of WT.

Q: And the binding signal [3]?
A: Its binding signal is 0 % of WT.
